Assay results: the Human Domainome abundance scans (Beltran et al. 2025)
± gives the uncertainty stated by the source.

B1: Transcription elongation regulator 1-like protein, residues 448 to 504; numbered along this chain, Q5VWI1 (parent)
chain: LPLEERVTHFRDMLLERGVSAFSTWEKELHKIVFDPRYLLLNSEERKQIFEQFVKTR

Variants of: B1
Experiment: abundance fitness (aPCA) (normalised: wild type 0, dead -1); higher = more abundant; growth selection in yeast, the domain comes from the species named
Conditions: Homo sapiens
F10R showed an abundance fitness of -0.677 ± 0.15.
In the case of F10H, the abundance fitness is reported as 0.065 ± 0.34.
For F10Q, the abundance fitness was -0.884 ± 0.34.
With L3A the abundance fitness was -0.337 ± 0.13.
Work on L3W yielded an abundance fitness of -0.116 ± 0.11.
With L3M the abundance fitness was 0.309 ± 0.18.
Work on R46L yielded an abundance fitness of -0.697 ± 0.13.
With R46G the abundance fitness was -0.39 ± 0.2.
For R46C, the abundance fitness was -0.657 ± 0.34.
In the case of R46K, the abundance fitness is reported as -0.429 ± 0.49.
Variant R17E has an abundance fitness of -0.479 ± 0.43.
Work on R17P yielded an abundance fitness of -0.249 ± 0.37.
Work on R17I yielded an abundance fitness of -0.853 ± 0.23.
In the case of L40K, the abundance fitness is reported as -0.966 ± 0.28.
In the case of L40E, the abundance fitness is reported as -0.466 ± 0.13.
With K47I the abundance fitness was 0.151 ± 0.44.
K47D gave an abundance fitness of -0.747 ± 0.26.
K47Q showed an abundance fitness of 0.159 ± 0.12.
For K47V, the abundance fitness was -0.501 ± 0.17.
In the case of K47T, the abundance fitness is reported as -0.73 ± 0.45.
K47C gave an abundance fitness of -0.165 ± 0.26.
In the case of K47G, the abundance fitness is reported as -0.31 ± 0.12.
In the case of K47P, the abundance fitness is reported as -0.783 ± 0.34.
Work on R6N yielded an abundance fitness of -0.485 ± 0.2.
For R6V, the abundance fitness was -0.701 ± 0.18.
With W25I the abundance fitness was -0.393 ± 0.46.
Variant W25D has an abundance fitness of -0.986 ± 0.31.
With W25V the abundance fitness was -0.668 ± 0.11.
In the case of W25M, the abundance fitness is reported as -0.154 ± 0.33.
Work on W25R yielded an abundance fitness of -0.531 ± 0.12.
V7E gave an abundance fitness of -0.406 ± 0.4.
With V7I the abundance fitness was 0.199 ± 0.16.
For V7A, the abundance fitness was 0.039 ± 0.16.
Variant V33K has an abundance fitness of 0.062 ± 0.17.
For V33H, the abundance fitness was 0.238 ± 0.44.
Work on E5M yielded an abundance fitness of -0.254 ± 0.45.
E5S showed an abundance fitness of -0.375 ± 0.19.
E5W showed an abundance fitness of -0.715 ± 0.39.
H9G gave an abundance fitness of -0.554 ± 0.23.
H9R gave an abundance fitness of -0.202 ± 0.14.
H9C showed an abundance fitness of -0.201 ± 0.079.
Variant H9W has an abundance fitness of -0.328 ± 0.31.
H9K gave an abundance fitness of 0.157 ± 0.089.
With S20N the abundance fitness was 0.589 ± 0.17.
S20D showed an abundance fitness of -0.185 ± 0.22.
In the case of S20C, the abundance fitness is reported as -0.169 ± 0.25.
In the case of V54S, the abundance fitness is reported as -0.222 ± 0.12.
Variant V54A has an abundance fitness of -0.451 ± 0.086.
Variant V54G has an abundance fitness of -0.632 ± 0.11.
V54P showed an abundance fitness of -0.811 ± 0.36.
For V54T, the abundance fitness was -0.093 ± 0.19.
D12F gave an abundance fitness of -0.624 ± 0.45.
Work on D12V yielded an abundance fitness of -0.641 ± 0.26.
Variant D12P has an abundance fitness of -0.83 ± 0.21.
D12R gave an abundance fitness of -0.283 ± 0.14.
For D12S, the abundance fitness was -0.237 ± 0.098.
For K27S, the abundance fitness was -0.679 ± 0.24.
K27V gave an abundance fitness of -0.422 ± 0.12.
Work on L14F yielded an abundance fitness of -0.817 ± 0.44.
For L14C, the abundance fitness was -0.561 ± 0.4.
L14V showed an abundance fitness of -0.967 ± 0.34.
Work on L14A yielded an abundance fitness of -0.701 ± 0.12.
Work on V19W yielded an abundance fitness of -0.767 ± 0.27.
For V19S, the abundance fitness was -0.805 ± 0.25.
In the case of V19K, the abundance fitness is reported as -0.376 ± 0.29.
Work on V19G yielded an abundance fitness of -0.7 ± 0.13.
E16L showed an abundance fitness of -1.01 ± 0.49.
E16A showed an abundance fitness of -0.46 ± 0.27.
Variant F53C has an abundance fitness of -0.828 ± 0.26.
With F53L the abundance fitness was -0.747 ± 0.19.
Work on E51W yielded an abundance fitness of -0.766 ± 0.21.
E51T showed an abundance fitness of -0.281 ± 0.085.
With E51S the abundance fitness was -0.28 ± 0.064.
For E51F, the abundance fitness was -0.288 ± 0.083.
T24L showed an abundance fitness of -0.559 ± 0.18.
With T24Q the abundance fitness was -0.503 ± 0.46.
T24I showed an abundance fitness of -0.692 ± 0.24.
In the case of I32L, the abundance fitness is reported as -0.494 ± 0.13.
Variant I32V has an abundance fitness of 0.086 ± 0.095.
Variant I32R has an abundance fitness of -0.538 ± 0.16.
Variant I32D has an abundance fitness of -0.852 ± 0.2.
T8M showed an abundance fitness of -0.396 ± 0.43.
Variant T8Q has an abundance fitness of -0.563 ± 0.41.
Variant T56E has an abundance fitness of 0.336 ± 0.26.
Work on T56S yielded an abundance fitness of -0.017 ± 0.16.
With T56V the abundance fitness was -0.477 ± 0.21.
Work on I49W yielded an abundance fitness of -0.743 ± 0.24.
With I49A the abundance fitness was -0.517 ± 0.28.
Variant I49Q has an abundance fitness of 0.437 ± 0.1.
Work on S43F yielded an abundance fitness of -0.328 ± 0.19.
S43G showed an abundance fitness of 0.034 ± 0.079.
Work on Y38Q yielded an abundance fitness of -0.668 ± 0.15.
Y38F gave an abundance fitness of -0.129 ± 0.31.
Y38S gave an abundance fitness of -0.898 ± 0.28.
For Y38W, the abundance fitness was -1.06 ± 0.37.
R37A gave an abundance fitness of -1.19 ± 0.43.
R37W showed an abundance fitness of -0.733 ± 0.35.
With R37C the abundance fitness was -0.75 ± 0.32.
D35W showed an abundance fitness of -0.861 ± 0.25.
For D35H, the abundance fitness was -0.354 ± 0.42.
Work on D35G yielded an abundance fitness of -0.757 ± 0.14.
D35S showed an abundance fitness of -0.944 ± 0.35.
With R11M the abundance fitness was -0.411 ± 0.29.
R11T gave an abundance fitness of -0.15 ± 0.32.
For R11E, the abundance fitness was -0.437 ± 0.23.
With K31C the abundance fitness was -0.457 ± 0.15.
F22G showed an abundance fitness of 0.04 ± 0.069.
F22C showed an abundance fitness of 0.078 ± 0.12.
With F22P the abundance fitness was -0.48 ± 0.28.
F50W gave an abundance fitness of -0.17 ± 0.084.
With F50Q the abundance fitness was -0.866 ± 0.23.
F50L gave an abundance fitness of -0.413 ± 0.17.
Variant F50E has an abundance fitness of -0.69 ± 0.4.
H30D gave an abundance fitness of -0.235 ± 0.32.
With H30I the abundance fitness was -0.439 ± 0.25.
Variant H30L has an abundance fitness of -0.544 ± 0.26.
N42S gave an abundance fitness of 0.034 ± 0.15.
In the case of N42E, the abundance fitness is reported as -0.023 ± 0.15.
Work on N42V yielded an abundance fitness of -0.924 ± 0.35.
Variant N42D has an abundance fitness of 0.035 ± 0.16.
For E28I, the abundance fitness was -1.02 ± 0.37.
Work on E28D yielded an abundance fitness of -0.673 ± 0.27.
E28C gave an abundance fitness of -0.542 ± 0.27.
E28A gave an abundance fitness of -0.822 ± 0.19.
In the case of E44R, the abundance fitness is reported as -0.201 ± 0.12.
E44Y showed an abundance fitness of -0.42 ± 0.15.
E44F showed an abundance fitness of -0.21 ± 0.13.
For E44P, the abundance fitness was -0.606 ± 0.32.
S23R showed an abundance fitness of -0.811 ± 0.25.
S23G gave an abundance fitness of -0.353 ± 0.47.
G18K gave an abundance fitness of 0.719 ± 0.15.
M13T gave an abundance fitness of -0.759 ± 0.14.
Work on M13R yielded an abundance fitness of -0.7 ± 0.26.
Variant M13C has an abundance fitness of -0.804 ± 0.16.
For K55W, the abundance fitness was -0.543 ± 0.2.
For K55D, the abundance fitness was -0.514 ± 0.21.
Variant K55M has an abundance fitness of 0.06 ± 0.19.
Work on K55T yielded an abundance fitness of 0.212 ± 0.14.
In the case of E4N, the abundance fitness is reported as 0.154 ± 0.4.
With E4C the abundance fitness was -0.458 ± 0.18.
In the case of L29G, the abundance fitness is reported as -0.667 ± 0.092.
Work on L29V yielded an abundance fitness of -0.213 ± 0.12.
L29Y showed an abundance fitness of 0.907 ± 0.18.
With L29M the abundance fitness was 0.377 ± 0.25.
Variant L29S has an abundance fitness of -0.452 ± 0.14.
L29P gave an abundance fitness of -0.722 ± 0.17.
Variant L29T has an abundance fitness of -0.253 ± 0.11.
For L1A, the abundance fitness was -0.321 ± 0.33.
Variant A21W has an abundance fitness of -0.594 ± 0.26.
Variant Q48V has an abundance fitness of -0.065 ± 0.11.
Q48W showed an abundance fitness of -0.05 ± 0.18.
Q48E gave an abundance fitness of 0.006 ± 0.25.
For Q48I, the abundance fitness was -0.213 ± 0.11.
For P36W, the abundance fitness was -0.011 ± 0.19.
With P36D the abundance fitness was -0.584 ± 0.4.
Variant L41F has an abundance fitness of -0.583 ± 0.1.
Work on L41T yielded an abundance fitness of -0.592 ± 0.087.
With L41R the abundance fitness was -0.616 ± 0.086.
In the case of L41Y, the abundance fitness is reported as -0.755 ± 0.19.
L15D gave an abundance fitness of -0.142 ± 0.47.
Work on L15G yielded an abundance fitness of -0.273 ± 0.11.
Variant L15P has an abundance fitness of -0.548 ± 0.28.
Variant L15H has an abundance fitness of -0.352 ± 0.37.
L15A gave an abundance fitness of -0.226 ± 0.19.
In the case of P2V, the abundance fitness is reported as -0.031 ± 0.34.
Work on P2W yielded an abundance fitness of 0 ± 0.31.
P2E gave an abundance fitness of 0.88 ± 0.073.
